# Laboratory results from patent US20190315821A1, “COMPOSITIONS COMPRISING HEPCIDIN AND METHODS OF USE THEREOF” (La Jolla Pharmaceutical Company, priority 2018, published 2019).
# Values joined by “and” are separate entries in the source; they are usually repeats but may differ in a detail not shown here. Equal entries are not always repeated.
# Tests used:
# [1] = Thiol content assay of hepcidin-25 batches; assay type: physicochemical; details: for Average mole thiol/[mole hepcidin]: batches of hepcidin-25 before and after purification, lower quantifiable limit 0.01; for thiol content of sample of FIG. 2: sample used in pH 2.5 / pH 5.6 stability study
# Text: In some embodiments, the composition comprises purified hepcidin and is substantially free of thiol (e.g., unreacted, free sulfhydryl-containing cysteines). Thiols can react with the disulfide bridges of hepcidin resulting in disulfide scrambling and potential polymerization of multiple hepcidin molecules to form aggregated hepcidin. Such thiols can come from multiple sources, some of which include thiols left over from synthesis of the hepcidin, incomplete folding of hepcidin and breakage of disulfide bridges within folded hepcidin, improperly folded hepcidin and/or aggregated hepcidin. Thiols may be measured by several methods, which may include a thiol quantification assay kit such as that from Molecular Probes: Thiol and Sulfide Quantification Kit (T-6060). Such a kit uses cysteine as a standard so that thiols are reported as cysteine equivalents. In some such embodiments the thiol content is less than 0.20 mole thiol/mole hepcidin. In some preferred embodiments, the thiol content is less than 0.1 mole thiol/mole hepcidin. In more preferred embodiments, the thiol content is less than 0.05 mole thiol/mole hepcidin. In further preferred embodiments, the thiol content is less than 0.015 mole thiol/mole hepcidin. In the most preferred embodiments, the thiol content is less than 0.01 mole thiol/mole hepcidin.
# (§1) In view of the role played by intermolecular disulfide bond formation in aggregate formation, and the contribution of thiol groups to that end, multiple sources of hepcidin-25 were analyzed for thiol using a thiol content assay and evaluated for stability. Commercially available hepcidin was used in these Examples, which while “purified” to contain only hepcidin, contained thiols and aggregates, and thus may be referred to as “unpurified” to distinguish it from the compositions of the invention. […] For the purpose of this experiment the thiol impurity was removed as follows: Thiols were quenched using 1 molar equivalents of […] (NEM). The solution was then purified by tangential flow filtration (TFF) using Millipore Pellicon 2 10 kDa cassettes for aggregate removal and Pall T-Series 1 kDa for ultra-filtration-diafiltration. The starting material was diluted to less than or equal to 0.1 mg/mL prior to processing through the 10 kDa system. The diluent consisted of 15% Acetonitrile/0.05% Trifluoracetic acid (TFA).
# [2] = Stability (aggregate formation by SEC) of unpurified and purified hepcidin in 0.9% saline at 40° C.; assay type: physicochemical; details: for Stability: aggregate formation of the batch; for aggregation at low pH: pH 2.5, 0.9% saline, over 10 days; for aggregate by SEC: pH 5.6, 0.9% saline
# Procedure: Aggregation can be measured by several different methods. In some embodiments, aggregation is measured by size exclusion high-performance liquid chromatography (SEC-HPLC). This method allows for the separation and quantification of hepcidin monomer from any aggregates including dimer, trimer and multimers. In other preferred embodiments, aggregation is measured by an isocratic method performed on an HPLC system comprised of a temperature controlled auto-sampler, a binary or quaternary pump, and an ultraviolet detector. For example, in some such embodiments, the mobile phase consists of 0.05% TFA in 50% acetonitrile and water and human hepcidin-25 (SEQ ID NO: 1) is dissolved in of 0.05% TFA to 1 mg/mL concentration. Five microliters of the solution are injected onto a Zenix-C SEC-80 column of 7.8×300 mm in dimension, 80 Å pore size and 3 μm particle size (Sepax Technologies, Newark, Del. 19711). A flow rate of 1 mL/min is used to elute the analyte from the column and deliver to the UV detector set at 214 nm. The entire run time is 13 min. Empower™ chromatography software or equivalent software is used to integrate each chromatography peak and calculate % peak area at each respective retention time.
# as §1
# The initial unpurified material and the resulting purified material were formulated in 0.9% saline at either pH 2.5 or pH 5.6 and assessed for stability at 40° C. Samples were taken over 10 days and evaluated by SEC.
# [3] = Effect of salt form on aggregate formation; assay type: physicochemical; details: for native pH of solution: when preparing solutions of hepcidin, before pH adjustment; for aggregation when maleic acid is present: pH 4.2, 1 mg/mL maleic acid, continued aggregation then slowed
# Procedure: The trifluoroacetate, chloride and acetate salts of hepcidin were prepared and all three salt forms were formulated in 0.9% saline at pH 4.2. The hepcidin concentration was 20 mg/mL with a maleic acid concentration of either 0 mg/mL or 1 mg/mL. Samples were filtered using a 0.2 μm syringe filter and aliquoted into glass screw cap amber vials. The samples were assessed for stability at 5° C. and 25° C. Over the course of 47 days the samples were evaluated by visual inspection, pH and SEC.
# [4] = Initial formulation stability (oxidation) by RP-HPLC; assay type: physicochemical
# Procedure: […] Samples were analyzed by reversed-phase high-performance liquid chromatography (RP-HPLC). […] Samples were evaluated over 4.5 months and analyzed by RP-HPLC. Under all conditions, the rate of oxidation observed was slow.
# [5] = Mechanism of aggregate formation: stability studies and DTT reduction, SEC; assay type: physicochemical
# Text: Hepcidin contains 8 cysteines, forming 4 disulfide bridges, each with the potential to become unstable under certain conditions. […] Significant work was completed to address this degradation pathway.
# Briefly, the effect of potential intermolecular disulfide bonding on aggregation was studied by adding a reducing agent to aggregated material to break all disulfide bonds. Hepcidin-25 with an aggregate content of 35% as measured by SEC was used for this study. An aliquot of this material was treated with 20 mM Dithiothreitol (DTT) and samples were evaluated by SEC.
# [6] = Effect of pH 4.2 vs pH 4.8 on aggregate formation; assay type: physicochemical; details: 9% starting aggregate, thiol removed, 0.9% sodium chloride, 5° C. and 25° C., about 50 days
# Procedure: Hepcidin-25, with 9% starting aggregate and purified to remove thiol, was dissolved in 0.9% sodium chloride and adjusted to either pH 4.2 or pH 4.8. Samples were filtered using a 0.2 μm syringe filter and aliquoted into glass screw cap amber vials. Samples were assessed for stability at both 5° C. and 25° C. Samples were taken over about 50 days and evaluated by visual inspection, pH and SEC.
# serum iron = details: cited from earlier work
substance,measurement,setting,value
"Vendor 1, Lot 1 purified: hepcidin-25 lot with thiols quenched with NEM and purified by tangential flow filtration",Average mole thiol/[mole hepcidin],[1],<0.01 mole thiol/mole hepcidin
same,thiol content of sample of FIG. 2,[1],no detectable thiol
same,Stability,[2],"Stable, very slow"
same,aggregation at low pH,[2]; 40° C.,no aggregation
same,aggregate by SEC,[2]; after 10 days at 40° C.,about 38%
"Vendor 1, Lot 1: commercially available hepcidin-25 batch containing thiols and aggregates, referred to as unpurified",Average mole thiol/[mole hepcidin],[1],0.17 mole thiol/mole hepcidin
same,thiol content of sample of FIG. 2,[1],1.7 mole thiol/mole hepcidin
same,Stability,[2],"Unstable, rapid"
same,aggregation at low pH,[2]; 40° C.,aggregates more slowly
same,aggregate by SEC,"[2]; 40° C., after 24 hours",> 95%
same,aggregate by SEC,[2]; within time it took to test the material by SEC,38%
"Vendor 1, Lot 2: commercially available hepcidin-25 batch, unpurified",Average mole thiol/[mole hepcidin],[1],>0.2 mole thiol/mole hepcidin
same,Stability,[2],"Unstable, rapid"
"Vendor 2, Lot 1: commercially available hepcidin-25 batch, unpurified",Average mole thiol/[mole hepcidin],[1],0.03 mole thiol/mole hepcidin
same,Stability,[2],"Unstable, slower"
"Vendor 2, Lot 2: commercially available hepcidin-25 batch, unpurified; label printed on two lines of Table 2",Average mole thiol/[mole hepcidin],[1],0.03 mole thiol/mole hepcidin and 0.02 mole thiol/mole hepcidin
same,Stability,[2],"Unstable, slower"
"Vendor 3, Lot 1: commercially available hepcidin-25 batch, unpurified",Average mole thiol/[mole hepcidin],[1],0.03 mole thiol/mole hepcidin
same,Stability,[2],"Unstable, slower"
hepcidin acetate [acetate salt form],relative stability of salt forms,"[3]; 20 mg/mL, 0.9% saline, pH 4.2, 0 or 1 mg/mL maleic acid, 5° C. and 25° C., 47 days",most stable of the three salt forms
same,native pH of solution,[3],about 5
hepcidin chloride [HCl salt],aggregation when maleic acid is present,[3]; 20 mg/mL,initial increase in aggregation
same,native pH of solution,[3],about 2.5
hepcidin trifluoroacetate [TFA],aggregation when maleic acid is present,[3]; 20 mg/mL,initial increase in aggregation
hepcidin-25,rate of oxidation,"[4]; 40 mg/mL in saline with or without methionine, 37° C. and 45° C., 4.5 months, all conditions",slow
same,effect of methionine excipient on oxidation,"[4]; 40 mg/mL in saline, methionine ten-fold molar excess, 37° C. and 45° C.",reduced the amount of oxidation even further
same,primary degradation products observed,"[4]; 50, 100 and 150 mg/mL, 5° C. over 4.5 months, RP-HPLC",mono or di-oxidation of the methionine at position 21
same,main mode of degradation,[5]; accelerated (40° C.) and real time (5° C.) stability studies,aggregation
same,aggregation after reduction of disulfide bonds,[5]; material with 35% aggregate treated with 20 mM DTT,aggregation is reversed
same,effect of pH on stability (aggregate formation),[6],pH 4.2 being more stable than pH 4.8
same,safety profile,serum iron; nonclinical and clinical studies,favorable safety profile
same,duration of iron lowering effects,serum iron; single subcutaneous injection,up to 1 week
